40 sequences from the nanobody polyreactivity screen of Harvey et al. (2022) can be followed below.

The nature of the series: yeast display, Sf9 membrane polyspecificity reagent, FACS + sequencing; frameworks hold sequencing errors. In outline:
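Genes from sorted yeast were amplified by colony PCR, read by MiSeq 2 × 250 sequencing and filtered on CDR length. These cells carried a synthetic nanobody library in Saccharomyces cerevisiae BJ5465 and were sorted by FACS into low and high (top ~1%) gates on anti-HA and streptavidin fluorescence. Polyreactivity is labelled according to the gate of origin.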
Regarding “QVQLVESGGGLVQAGGSLRLSCAASGFIFSSNAMGWYRQAPGKEREFVAAISFRGGTTYYADSVKRRFTISRDNAKNTVYLQLNSLKPEDTAVYYCNAVRWRSGRWWWYDYWGQGTQVTVSS”, the “polyreactivity (PSR sort gate)” value is “low polyreactivity”.
Turning to “QVQLVESGGGLVQAGGSLRLSCAASGFIFSSNAMGWYRQAPGKERELVATISSDGSTNYADSVKGRFTISRDNAKNTVYLQMNSLKPEDTAVYYCAADLSLTIGTWTVLDTKYDYWGQGTQVTVSS”, the “polyreactivity (PSR sort gate)” value is “low polyreactivity”.
As to “QVQLVESGGGLVQAGGSLRLSCAASGFIFSSNDMGWYRQAPGKERELVAAIDYSGGSTYYADSVKGRFTISRDNAKNTVYLQMNSLKPEDTAVYYCAATVYNPTDYYSPYYYWGQGTQVTGSS”, the “polyreactivity (PSR sort gate)” value is on record as “low polyreactivity”.
The entry for “QVQLVESGGGLVQAGGSLRLSCAASGFIFSSNTMGWYRQAPGKERELVADITSGARTNYADSVKGRFTISRDNAKNTVYLQMNSLKPEDTAVYYCAAYPHYIYFTWYPRYTYGYWGQGTQVTVSS” is “low polyreactivity”.
The entry for “QVQLVESGGGLVQAGGSLRLSCAASGFIFSSYAMGWYRQAPGKEREFVASISASGGTTYYADSVKGRFTISRDNAKNTVYLQMNSLKPEDTAVYYCAAPWLDAEDYWGQGTQVTVSS” is “high polyreactivity”; for “QVQLVESGGGLVQAGGSLRLSCAASGFIFSSYAMGWYRQAPGKEREFVAVISTGGGSTYYADSVKGRFTISRDNAKITVYLQMNSLKPEDTAVYYCAAKLYDSGGRYWYDYWGQGTQVTVSS” it is “high polyreactivity”.
As to “QVQLVESGGGLVQAGGSLRLSCAASGFIFSSYAMGWYRQAPGKERELVAAISRSGGRTYYADSVKGRFTISRDNAKNTVYLQMNSLKPEDTAVYYCAAKWLGTAGDDYWGQGTQVTVSS”, the “polyreactivity (PSR sort gate)” value is “high polyreactivity”.
The entry for “QVQLVESGGGLVQAGGSLRLSCAASGFIFSTYAMGWYRQAPGKERELVSAISCSTGSTYYADSVKGRFTISRDNAKNTVYLQMNSLKPEDTAVYYCNALRRPSTEGRDYWGQGTQVTVSS” is “high polyreactivity”; for “QVQLVESGGGLVQAGGSLRLSCAASGFIFSVNAMGWYRQAPGKERELVAAISTNTGRTYYADSVKGRFTISRDNAKNTVYLQMNSLKPEDTAVYYCAADGPTYWAVRGDYWGQGTQVTVSS” it is “low polyreactivity”.
The entry for “QVQLVESGGGLVQAGGSLRLSCAASGFIFSVNTMGSYRQAPGKERELVAAISGSGGSTYYADSVKGRFTISRDNAKNTVYLQMNSLKPEDTAVYYCAARYTVTYDYWGQGTQVTVSS” is “high polyreactivity”; for “QVQLVESGGGLVQAGGSLRLSCAASGFIFSVYAMGWYRQAPGKEREFVAAIRWSGGSTYYADSVKGRFTISRDNAKNTVYLQMNSLKPEDTAVYYCAARARDLYGYWGQGTQVTVSS” it is “high polyreactivity”.
The entry for “QVQLVESGGGLVQAGGSLRLSCAASGFIFSVYAMGWYRQAPGKERELVAAITESGGSTYYADSVKGRFTISRDNAKNSVYLQMNSLKPEDTAVYYCAAAIRPYEYEYWGQGTQVTVSS” is “low polyreactivity”; for “QVQLVESGGGLVQAGGSLRLSCAASGFIFSVYAMGWYRQAPGTEREFVAAIRWSGGSTYYADSVKGRFTISRDNAKNTVYLQMNSLKPEDTAVYYCAARARDHYGYWGQGTQVTVSS” it is “high polyreactivity”.
“QVQLVESGGGLVQAGGSLRLSCAASGFIFSVYTMGWYRQAPGKERELVASITWSGGDTYYADSVKGRFTISRDNAKNTVYLQMNSLKPEDTAVYYCNVDAGFHDSYHAWNLRYDYWGQGTQVTVSS”: the “polyreactivity (PSR sort gate)” value is recorded as “low polyreactivity”.
As to “QVQLVESGGGLVQAGGSLRLSCAASGFIFSWNAMGWYRQAPGKERELVAVITWSGSRTNYADSVKGRFTISRDNAKNTVYLQMNSLKPEDTAVYYCATKGPVYTSSRPVSGGAYNYWGQGTQVTVSS”, the “polyreactivity (PSR sort gate)” value is given as “low polyreactivity”.
In the case of “QVQLVESGGGLVQAGGSLRLSCAASGFIFSYYALGWYRQATGKERELVAAITYSGVRTYYADSVKGRFTISRDNAKNTVYLQMNSLKPVDTAVYYCNTKHRTKPTRPDDYWGQGTQVTVSS”, the “polyreactivity (PSR sort gate)” value was “high polyreactivity”.
On to “QVQLVESGGGLVQAGGSLRLSCAASGFIFSYYAMGWYRQAPGKERELVAAISSGGSTYYADSVKGRFTISRDNAKNTVYLQMNSLKPEDTAVYYCAAAIWYIKLYFVRRTEHGYWGQGTQVTVSS”, for which the “polyreactivity (PSR sort gate)” value was “low polyreactivity”.
The entry for “QVQLVESGGGLVQAGGSLRLSCAASGFIFSYYAMGWYRQAPGKERELVATITSGGSTNYADSVKGRFTISRDNAKNTVYLQMNSLKPEDTAVYYCNALPGVSHTQYDRVGYWGQGTQVTLSS” is “high polyreactivity”.
The entry for “QVQLVESGGGLVQAGGSLRLSCAASGFIFSYYAMGWYRQAPGTERELVAVITFSVGSPYYADSVKGRFTISRDNAQNTVYLLMNSLKPEDTAVYYCAARSYACAKRAYYYWGQGTQVTVSS” is “high polyreactivity”.
The entry for “QVQLVESGGGLVQAGGSLRLSCAASGFIFSYYTMGWYRQEPGTERELVADISWSGGSSYYADSVKGRFTISRDNAKNTVYLQMNSLKPEDTAVYYCNAEGWTAFLDQYDYWGQGTQVTVSS” is “high polyreactivity”; for “QVQLVESGGGLVQAGGSLRLSCAASGFIFSYYVMGWYRQAPGKERELVAAINESGGRTYYADSVKGRFTISRDNAKNTVYLQMNSLKPEDTAVYYCAASVLNKIQGYRDYYWGQGTQVTVSS” it is “low polyreactivity”.
For “QVQLVESGGGLVQAGGSLRLSCAASGFIFSYYVMGWYRQAPGKERELVAAINESGGRTYYADSVKGRFTISRDNAKNTVYLQMNSLKPEDTAVYYCATIPGYVYYWQYKYDYWGQGTQVTVSS”, the “polyreactivity (PSR sort gate)” value is “low polyreactivity”.
The entry for “QVQLVESGGGLVQAGGSLRLSCAASGFIFTDNVMGWYRQAPGKERELVAAISRGGGSTYYADSVKGRFTISRDNAKNTDYLQMNSLKPEDTAVYYCAAPTARSRSERDYWGQGTQVTVSS” is “high polyreactivity”; for “QVQLVESGGGLVQAGGSLRLSCAASGFIFTDYTMGWYRQAPGKERELVAAIDSSGGGTHYADSVKGRFTISRDNAKNTVYLQMNSLKPEDTAVYYCAAADYLIQFWYQYDYWGQGTQVTVSS” it is “low polyreactivity”.
The entry for “QVQLVESGGGLVQAGGSLRLSCAASGFIFTIYAMGWYRQAPGKERELVAAITWNGGRTYYADSVKGRFTISRDNAKNTVYLQMNSLKPEDTAVYYCAARYGRAYDYWGQGTQVTVSS” is “high polyreactivity”.
The entry for “QVQLVESGGGLVQAGGSLRLSCAASGFIFTLYAMGWYRKAPGKEREFVAAISWSDGSTTYADSVKGRFTISRDNAKNTVYLQMNSLKPEDTAVYYCNTSYIIWYDSWGQGTQVTVSS” is “low polyreactivity”; for “QVQLVESGGGLVQAGGSLRLSCAASGFIFTRYAMGWYRQAPGKERELVAAIRWRGSSTYYADSVKGRFTISRDNAKNTVYLQMNSLKPEDTAVYYCAAQPSRSTYLAPSRDHWGQGTQVTVSS” it is “low polyreactivity”; for “QVQLVESGGGLVQAGGSLRLSCAASGFIFTRYAMGWYRQAPGKERELVAAITRSGGRTYYADSVKGRFTISRDNAKNTVYLQMNSLKPEDTAVYYCAAEGSVGLYGLIMHYWGLGTQVTVSS” it is “high polyreactivity”.
Take “QVQLVESGGGLVQAGGSLRLSCAASGFIFTRYAMGWYRQAPGKERELVAGINRSGSRTYYADSVKGRFKISRDNAKNTVYLQMNSLKPEDTAVYYCATDTWYLYSTLDYWGQGTQVTVSS”: the “polyreactivity (PSR sort gate)” value is recorded as “high polyreactivity”.
The entry for “QVQLVESGGGLVQAGGSLRLSCAASGFIFTTYAMGWYRQAPGKERELVAAISTSGGRTYYADSVKGRFTISRDNAKNTVYLQMNSLKPEDTAVYYCNTYSYYSYDWGQGTQVTVSS” is “high polyreactivity”.
The entry for “QVQLVESGGGLVQAGGSLRLSCAASGFIFTWYAMGWYRQAPGKEREVVAGISRSGGRTYYADSVKGRFTISRDNAKNTVYLQMNSLKPEDTAVYYCNAVLVGYRPYREFDHWGQGTQVTVSS” is “high polyreactivity”; for “QVQLVESGGGLVQAGGSLRLSCAASGFIFTYNAMGWYRQAPGKERELVAAMNSGGITYYADSVKGRFTISRDNAKNPVYLQMNSLKPEDTAVYYCAKRRQIGWITYDYCGQGTQVTVSS” it is “low polyreactivity”.
The entry for “QVQLVESGGGLVQAGGSLRLSCAASGFIFTYYAMGWYRQAPGKERELVAAISSRGTSTYYADSVKGRFTISRDNAKNTVYLQMNSLKPEDTAVYYCAAGKPKIPDDDYWGQGTQVTVSS” is “high polyreactivity”; for “QVQLVESGGGLVQAGGSLRLSCAASGFIFTYYAMGWYRQAPGKERELVASITISGGSTYYADSVKGRFTISRDNAKNTVYLQMNSLKPEDTAVYYCNVVPWYYGYDYWGQGTQVTVSS” it is “high polyreactivity”.
Take “QVQLVESGGGLVQAGGSLRLSCAASGFIFTYYAMGWYRQAPGKERELVAVISWSGGTTYYADSVKGRFTISRDNAKNTVYLQMNSLKPEDTAVYYCAAGKVSFWLVFEYDYWGQGTQVTVSS”: the “polyreactivity (PSR sort gate)” value was “low polyreactivity”.
For the sequence “QVQLVESGGGLVQAGGSLRLSCAASGFIFTYYDMGWYRQAPGKERELVASISWDGGRTYYADSVKGRFTISRDNAKNTVYLQMNSLKPEDTAVYYCAKRLGGSPIQARGDYWGQGTQVTVSS”, the “polyreactivity (PSR sort gate)” value is reported as “low polyreactivity”.
Consider “QVQLVESGGGLVQAGGSLRLSCAASGFIFTYYGMGWYRQAPGKERELVAAITWSGASTYYADSVKGRFTISRDNAKNTVYLQMNSLKPEDTAVYYCNAGWDSGIVQSDETVYKYDYWGQGTQVTVSS”, for which the “polyreactivity (PSR sort gate)” value is on record as “low polyreactivity”.
The entry for “QVQLVESGGGLVQAGGSLRLSCAASGFIFVAYAMGWYRQAPGKERELVATIDSSGGTTYYADSVKGRFTISRDNAKNTVYLQMNSLKPEDTAVYYCNAPIYPYREFGRDYWGQGTQVTVSS” is “low polyreactivity”.
The entry for “QVQLVESGGGLVQAGGSLRLSCAASGFIFVGNAMGWYRQAPGKERELVAAISSGTSTNYADSVKGRFTISRDNAKNTVYLQMNSLKPEDTAVYYCNAEVPATNEYTKRMDYWGQGTQVTVSS” is “low polyreactivity”; for “QVQLVESGGGLVQAGGSLRLSCAASGFIFVGYAMGWYRQAPGKERELVAAITDGGRTKYADSVKGRFTISRDNAKNTVYLQMNSLKPEDTAVYYCAADDLHTYYTLDYWGQGTQVTVSS” it is “high polyreactivity”.
